These results are taken from publication doi:10.1101/2020.07.24.219956.

Test [1] concerns the target Human neutrophil-derived myeloperoxidase (human) (UniProt P05164). Kind of test: mass photometry.
Test [2] has the same target. The experiment in a line: native MS.

With “Human neutrophil-derived myeloperoxidase (from UniProt P05164 279-745; P05164 279-745) (enzyme)”, in test [1], the Kd (usually the equilibrium constant for the complex coming apart) stood at 0.05 nM; the percent diprotomer (ααββ) is 93%; the percent monoprotomer (αβ) was 7%; the stoichiometry N (usually the number of molecules, sites or subunits per partner or assembly) turned out to be 2. Besides, the stoichiometry N in test [2] came to 2.
